Literature values as cited in publication PMC9326902.

Biological target: Hemoglobin (Homo sapiens) (UniProt P69905)
Chain of UniProt P69905 (P69905 2-142, chain 1 of 2): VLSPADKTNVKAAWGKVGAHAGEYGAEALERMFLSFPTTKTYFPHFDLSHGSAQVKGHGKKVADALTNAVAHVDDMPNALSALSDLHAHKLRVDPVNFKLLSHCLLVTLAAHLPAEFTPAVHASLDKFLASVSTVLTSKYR
Chain of UniProt P69905 (P68871 2-147, chain 2 of 2, further chain): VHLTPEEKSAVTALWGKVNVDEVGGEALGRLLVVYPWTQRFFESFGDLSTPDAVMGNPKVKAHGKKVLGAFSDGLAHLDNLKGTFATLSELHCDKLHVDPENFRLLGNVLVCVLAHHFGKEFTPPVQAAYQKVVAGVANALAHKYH

Question: Which Kd does the source give for IsdH N2 (from UniProt Q2FXJ2) here?
Answer: 7.5 µM
